# Assay results taken from patent publication US20250049896A1 (Regeneron, published 2025).
# Numbering of substitutions follows the chain as printed.
# B1: 12844B (antibody, human IgG1, kappa, V domains shown)
# VH: EVQLVESGGSVVRPGGSLRLSCEASGFTFDDYGMSWVRQDPGKGLEWVSGINWNGDRTNYADSVKGRFIISRDNAKNSVYLQMNSLRAEDSALYHCARDQGLGVAATLDYWGQGTLVTVSS
# VL: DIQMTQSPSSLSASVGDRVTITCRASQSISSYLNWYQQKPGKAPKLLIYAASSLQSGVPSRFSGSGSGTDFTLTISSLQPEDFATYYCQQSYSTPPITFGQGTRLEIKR
# notes: Tested as bivalent human IgG1 from CHO primary supernatant
# B2: 12850B (antibody, human IgG1, kappa, V domains shown)
# VH: QVQLVQSGAEVKKPGSSVKVSCKASGGTFNTYAITWVRQAPGQGLEWMGGIIPISGIAEYAQKFQGRVTITTDDSSTTAYMELNSLRSEDTAVYYCASWNYALYYFYGMDVWGRGTTVTVSS
# VL: not shown
# notes: Tested as bivalent human IgG1 from CHO primary supernatant; also called H1H12850B; REGN17516
# B3: 12848B (antibody, human IgG1, kappa, V domains shown)
# VH: EVQLVESGGGLVQPGRSLTLSCAASGFTFDNFGMHWVRQGPGKGLEWVSGLTWNSGVIGYADSVKGRFTISRDNAKNSLYLQMNSLRPEDTALYYCAKDIRNYGPFDYWGQGTLVTVSS
# VL: not shown
# notes: Tested as bivalent human IgG1 from CHO primary supernatant; also called H1H12848B; REGN17515
# B4: 12843B (antibody, human IgG1, kappa, V domains shown)
# VH: EVQLVESGGGLVQPGGSLRLSCAASGFTFNIFEMNWVRQAPGKGLEWISYISSRGTTTYYADSVRGRFTISRDNAKNSLYLQMNSLRAEDTAVYYCARDYEATIPFDFWGQGTLVTVSS
# VL: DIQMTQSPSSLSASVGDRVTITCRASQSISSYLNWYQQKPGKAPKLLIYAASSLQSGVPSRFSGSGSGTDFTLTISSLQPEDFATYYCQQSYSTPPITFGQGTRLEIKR
# notes: Tested as bivalent human IgG1 from CHO primary supernatant; also called H1H12843B; REGN17512
# B5: 12835B (antibody, human IgG1, kappa, V domains shown)
# VH: EVQLVESGGGLIQPGGSLRLSCEASGFTFRNYEMNWVRQAPGKGLEWVSYISSSGNMKDYAESVKGRFTISRDNVKNSLQLQMNSLRVEDTAVYYCARDEFPYGMDVWGQGTTVTVSS
# VL: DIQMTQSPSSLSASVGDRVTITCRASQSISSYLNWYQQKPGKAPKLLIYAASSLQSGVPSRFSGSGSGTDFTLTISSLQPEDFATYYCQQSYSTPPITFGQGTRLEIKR
# notes: Tested as bivalent human IgG1 from CHO primary supernatant; also called H1H12835B; REGN17509
# B6: 12847B (antibody, human IgG1, kappa, V domains shown)
# VH: EVQLVESGGGLVQPGRSLRLSCAASGFTFDDYAMNWVRQAPGKGLEWVSGISWSSGSMDYADSVKGRFTISRDNAKNSLYLQMNSLRTEDTALYYCAKAREVGDYYGMDVWGQGTTVTVSS
# VL: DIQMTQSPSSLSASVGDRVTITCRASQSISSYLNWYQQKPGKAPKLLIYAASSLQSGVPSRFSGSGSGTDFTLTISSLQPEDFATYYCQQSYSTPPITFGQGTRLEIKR
# notes: Tested as bivalent human IgG1 from CHO primary supernatant; also called H1H12847B; REGN17514
# B7: 12799B Fab (Fab, V domains shown)
# VH: QITLKESGPTLVKPTQTLTLTCTFSGFSLSTSGVGVVWIRQPPGKALEWLALIYWNDHKRYSPSLGSRLTITKDTSKNQVVLTMTNMDPVDTATYYCAHYSGSYSYYYYGLDVWGQGTTVTVSS
# VL: DIQMTQSPSSVSASVGDRVTITCRASQGIASWLAWYQQKPGKAPELLIYAASSLQGGVPSRFSGSGSGTDFTLTISSLQPEDFAIYYCQQANYFPWTFGQGTKVEIKR
# notes: CHO supernatant
# B8: 12801B scFv (VK-VH) (scFv)
# scFv: DIQMTQSPSSLSASVGDRVTITCRASQGIRTDLGWYQQKPGKAPKRLIYAASSLQSGVPSRFSGSGSGTEFTLTISSLRPEDFATFYCLQYNSYPLTFGGGTKVEIKGGGGSGGGGSGGGGSEVQLLESGGALVQPGGSLRLSCAASGFTFTSYAMHWVRQAPGKGLEWVSSIRGSGGGTYSADSVKGRFTISRDNSRDTLYLQMNSVRAEDTAVYYCARSHDYGAFDFFDYWGQGTLVTVSS
# notes: CHO supernatant; Vk-3xG4S-Vh
# B9: 12798B scFv (VK-VH) (scFv)
# scFv: EIVMTQSPATLSVSPGERATLSCRASQTVSSNLAWYQQKPGQAPRLLIYGSSSRATGIPARFSGSGSGTEFTLTISSLQSEDFAVYYCQQYNNWPPYTFGQGTKLEIKGGGGSGGGGSGGGGSEVQLVESGGDLVQPGRSLRLSCAASGFTFDDYAMHWVRQAPGKGLEWVSGISWNSATRVYADSVKGRFTISRDNAKNFLYLQMNSLRSEDTALYHCAKDMDISLGYYGLDVWGQGTTVTVSS
# notes: CHO supernatant; Vk-3xG4S-Vh
# B10: 12798B scFv (VH-VK) (scFv)
# scFv: EVQLVESGGDLVQPGRSLRLSCAASGFTFDDYAMHWVRQAPGKGLEWVSGISWNSATRVYADSVKGRFTISRDNAKNFLYLQMNSLRSEDTALYHCAKDMDISLGYYGLDVWGQGTTVTVSSGGGGSGGGGSGGGGSEIVMTQSPATLSVSPGERATLSCRASQTVSSNLAWYQQKPGQAPRLLIYGSSSRATGIPARFSGSGSGTEFTLTISSLQSEDFAVYYCQQYNNWPPYTFGQGTKLEIK
# notes: CHO supernatant
# B11: 12795B Fab (Fab, V domains shown)
# VH: EVQLVESGGGLVQPGGSLRLSCATSGFTFTSYDMKWVRQAPGLGLEWVSAISGSGGNTYYADSVKGRFTISRDNSRNTLYLQMNSLRAEDTAVYYCTRSHDFGAFDYFDYWGQGTLVTVSS
# VL: DIQMTQSPSSLSASVGDRVTITCRASQGIRDHFGWYQQKPGKAPKRLIYAASSLHSGVPSRFSGSGSGTEFTLTISSLQPEDFATYYCLQYDTYPLTFGGGTKVEIKR
# notes: CHO supernatant
# B12: 12801B Fab (Fab, V domains shown)
# VH: EVQLLESGGALVQPGGSLRLSCAASGFTFTSYAMHWVRQAPGKGLEWVSSIRGSGGGTYSADSVKGRFTISRDNSRDTLYLQMNSVRAEDTAVYYCARSHDYGAFDFFDYWGQGTLVTVSS
# VL: B11 VL with D31T, H32D, F33L, H55Q, Q79R, Y86F, D92N, T93S
# notes: CHO supernatant
# B13: 12795B scFv (VK-VH) (scFv)
# scFv: DIQMTQSPSSLSASVGDRVTITCRASQGIRDHFGWYQQKPGKAPKRLIYAASSLHSGVPSRFSGSGSGTEFTLTISSLQPEDFATYYCLQYDTYPLTFGGGTKVEIKGGGGSGGGGSGGGGSEVQLVESGGGLVQPGGSLRLSCATSGFTFTSYDMKWVRQAPGLGLEWVSAISGSGGNTYYADSVKGRFTISRDNSRNTLYLQMNSLRAEDTAVYYCTRSHDFGAFDYFDYWGQGTLVTVSS
# notes: CHO supernatant; Vk-3xG4S-Vh
# B14: 12798B Fab (Fab, V domains shown)
# VH: EVQLVESGGDLVQPGRSLRLSCAASGFTFDDYAMHWVRQAPGKGLEWVSGISWNSATRVYADSVKGRFTISRDNAKNFLYLQMNSLRSEDTALYHCAKDMDISLGYYGLDVWGQGTTVTVSS
# VL: not shown
# notes: CHO supernatant
# B15: 12801B scFv (VH-VK) (scFv)
# chain: EVQLLESGGALVQPGGSLRLSCAASGFTFTSYAMHWVRQAPGKGLEWVSSIRGSGGGTYSADSVKGRFTISRDNSRDTLYLQMNSVRAEDTAVYYCARSHDYGAFDFFDYWGQGTLVTVSSDIQMTQSPSSLSASVGDRVTITCRASQGIRTDLGWYQQKPGKAPKRLIYAASSLQSGVPSRFSGSGSGTEFTLTISSLRPEDFATFYCLQYNSYPLTFGGGTKVEIK
# B16: 12795B scFv (VH-VK) (scFv)
# chain: EVQLVESGGGLVQPGGSLRLSCATSGFTFTSYDMKWVRQAPGLGLEWVSAISGSGGNTYYADSVKGRFTISRDNSRNTLYLQMNSLRAEDTAVYYCTRSHDFGAFDYFDYWGQGTLVTVSSDIQMTQSPSSLSASVGDRVTITCRASQGIRDHFGWYQQKPGKAPKRLIYAASSLHSGVPSRFSGSGSGTEFTLTISSLQPEDFATYYCLQYDTYPLTFGGGTKVEIK
# B17: 12799B scFv (VK-VH) (scFv)
# scFv: DIQMTQSPSSVSASVGDRVTITCRASQGIASWLAWYQQKPGKAPELLIYAASSLQGGVPSRFSGSGSGTDFTLTISSLQPEDFAIYYCQQANYFPWTFGQGTKVEIKGGGGSGGGGSGGGGSQITLKESGPTLVKPTQTLTLTCTFSGFSLSTSGVGVVWIRQPPGKALEWLALIYWNDHKRYSPSLGSRLTITKDTSKNQVVLTMTNMDPVDTATYYCAHYSGSYSYYYYGLDVWGQGTTVTVSS
# notes: CHO supernatant; Vk-3xG4S-Vh
# Target: T1, mf TFRC ecto-mmh (REGN2054), monomeric monkey (cyno) Tfrc ectodomain with C-terminal myc-myc-hexahistidine tag (monkey (cyno), Macaca fascicularis, UniProt H9EXL1 89-760)
# T1 construct: range 89-760; also called mfTfR-mmh; mfTFR-mmh
# Experiment: SPR (Biacore), mAb captured on anti-human Fc, 100 nM mfTfR-mmh, 25 C
# Method: (§1) Biacore binding kinetics assays were conducted for the interaction of 32 anti-human TfR IgG1 monoclonal antibodies from CHO supernatants with TfR reagents at 25° C.
# (§2) Equilibrium dissociation constants (KD) for the interaction of anti-TfR monoclonal antibodies with human and fascicularis monkey TfR ecto domain recombinant proteins were determined using a real-time surface plasmon resonance (SPR) based Biacore S200 biosensor. All binding studies were performed in 10 mM HEPES, 150 mM NaCl, 3 mM EDTA, and 0.05% v/v surfactant Tween-20, pH 7.4 (HBS-EP) running buffer at […]. The Biacore CM5 sensor surface was first derivatized by amine coupling with a monoclonal mouse anti-human Fc antibody (REGN2567) followed by a step to capture anti-TfR monoclonal antibodies in CHO conditioned media. […] The dissociation of TfR bound to anti-TfR monoclonal antibodies was monitored for 3 minutes in HBS-EP running buffer. At the end of each cycle, the anti-TfR monoclonal antibodies capture surface was regenerated using a 12-sec injection of 20 mM H₃PO₄. The association rate (ka) and dissociation rate (kd) were determined by fitting the real-time binding sensorgrams to a 1:1 binding model with mass transport limitation using Scrubber 2.0 c software. The dissociation equilibrium constant (KD) and dissociative half-life (t½) were calculated from the kinetic rate constants as: […]
# T1 sequence (chain, as listed by the source): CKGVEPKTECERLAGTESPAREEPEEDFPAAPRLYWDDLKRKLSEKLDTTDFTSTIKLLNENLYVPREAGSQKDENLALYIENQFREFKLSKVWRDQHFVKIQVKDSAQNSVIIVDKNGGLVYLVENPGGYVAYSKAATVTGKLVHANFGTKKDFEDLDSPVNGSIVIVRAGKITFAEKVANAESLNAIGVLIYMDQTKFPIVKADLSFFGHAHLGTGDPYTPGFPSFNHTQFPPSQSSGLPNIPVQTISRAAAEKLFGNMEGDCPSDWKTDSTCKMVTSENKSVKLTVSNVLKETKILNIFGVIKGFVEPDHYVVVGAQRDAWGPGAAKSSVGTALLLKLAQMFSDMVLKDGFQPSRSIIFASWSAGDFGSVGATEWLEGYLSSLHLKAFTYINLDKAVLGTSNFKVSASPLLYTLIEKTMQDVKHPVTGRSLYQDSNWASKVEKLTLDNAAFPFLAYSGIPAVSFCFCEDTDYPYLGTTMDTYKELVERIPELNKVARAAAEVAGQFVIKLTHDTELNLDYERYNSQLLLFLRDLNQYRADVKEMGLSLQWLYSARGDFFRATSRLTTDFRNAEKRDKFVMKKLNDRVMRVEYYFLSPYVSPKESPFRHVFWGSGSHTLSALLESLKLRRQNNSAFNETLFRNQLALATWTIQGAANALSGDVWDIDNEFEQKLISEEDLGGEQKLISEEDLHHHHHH
100 nM Ag Bound (RU),Kd,koff,kon,t½,Binder
437 RU,9.68 nM,0.000735 s⁻¹,75900 M⁻¹ s⁻¹,15.7 min,B1
87 RU,15.5 nM,0.00157 s⁻¹,101000 M⁻¹ s⁻¹,7.3 min,B2
261 RU,18.2 nM,0.000962 s⁻¹,52900 M⁻¹ s⁻¹,12 min,B3
399 RU,15 nM,0.00118 s⁻¹,79000 M⁻¹ s⁻¹,9.8 min,B4
254 RU,17.7 nM,0.00168 s⁻¹,95100 M⁻¹ s⁻¹,6.9 min,B5
702 RU,3.36 nM,0.000333 s⁻¹,99200 M⁻¹ s⁻¹,34.7 min,B6

# Target: T2, hmm.hTfRC (REGN2431), human transferrin receptor extracellular domain with hexahistidine-myc-myc tag (human, UniProt P02786 89-760)
# T2 construct: Monomeric recombinant protein, 79210 g/mol; also called hTFR-mmh; His-myc-myc-hTFRC ecto
# Experiment: SPR (Biacore), mAb captured on anti-human Fc, 100 nM hTFR-mmh, 25 C
# Method: as §1, §2
# T2 sequence (P02786 other isoform, or with tags, fused parts or gaps): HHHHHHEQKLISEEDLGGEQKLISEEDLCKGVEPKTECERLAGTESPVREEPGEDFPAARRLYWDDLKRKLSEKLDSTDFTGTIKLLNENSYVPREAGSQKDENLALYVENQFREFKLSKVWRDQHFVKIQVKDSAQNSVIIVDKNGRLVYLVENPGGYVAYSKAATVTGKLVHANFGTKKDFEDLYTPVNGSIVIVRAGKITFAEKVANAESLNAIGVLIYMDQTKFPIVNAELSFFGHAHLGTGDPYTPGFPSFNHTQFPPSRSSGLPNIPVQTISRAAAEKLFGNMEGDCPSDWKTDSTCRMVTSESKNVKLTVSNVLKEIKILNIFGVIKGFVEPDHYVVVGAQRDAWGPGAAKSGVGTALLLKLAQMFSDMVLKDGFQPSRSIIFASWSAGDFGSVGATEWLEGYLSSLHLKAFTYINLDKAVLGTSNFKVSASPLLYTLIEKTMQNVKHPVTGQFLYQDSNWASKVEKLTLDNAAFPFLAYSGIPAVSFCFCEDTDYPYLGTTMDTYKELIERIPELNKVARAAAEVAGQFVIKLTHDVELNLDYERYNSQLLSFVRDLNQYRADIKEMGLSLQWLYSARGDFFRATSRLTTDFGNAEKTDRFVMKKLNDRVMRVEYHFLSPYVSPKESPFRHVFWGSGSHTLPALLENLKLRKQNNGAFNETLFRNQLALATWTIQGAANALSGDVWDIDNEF
100 nM Ag Bound (RU),Kd,koff,kon,t½,Binder
946 RU,0.935 nM,0.000122 s⁻¹,131000 M⁻¹ s⁻¹,95 min,B1
725 RU,0.215 nM,1.76e-05 s⁻¹,83700 M⁻¹ s⁻¹,657 min,B2
823 RU,0.494 nM,4.99e-05 s⁻¹,101000 M⁻¹ s⁻¹,232 min,B3
854 RU,1.78 nM,0.000168 s⁻¹,94200 M⁻¹ s⁻¹,68.8 min,B4
1150 RU,3.11 nM,0.000417 s⁻¹,134000 M⁻¹ s⁻¹,27.7 min,B5
895 RU,1.62 nM,0.000171 s⁻¹,105000 M⁻¹ s⁻¹,67.6 min,B6

# Target: T3, Hmm-hTFRC (REGN2431), monomeric human transferrin receptor ectodomain with N-terminal hexahistidine-myc-myc … (human, UniProt P02786 89-760)
# T3 construct: also called hmm.hTfR(C89-F763); His-myc-myc-hTFRC ecto
# Experiment: blocking ELISA, supernatant; Hmm-hTFRC binding to immobilized human holo-Tf
# Method: In the blocking assay, the anti-human Transferrin goat IgG polyclonal antibody (anti-hTf pAb) was passively absorbed at a concentration of 2 micrograms/mL in PBS on a 96-well microtiter plate overnight at 4° C. […] To the same plate, human holo-Tf was then added at a concentration of 1 micrograms/mL in PBS+0.5% BSA for 2 hours at room temperature. […] After a 1-hour incubation, the mixtures were transferred to the human holo-Tf microtiter plates. […] The plates were developed using TMB substrate solution according to the manufacturer's recommended procedure and absorbance at 450 nm was measured on a Victor™ Multilabel Plate Reader.
# The ability of the anti-TfR antibody to block human TFRC binding to human holo-Tf was evaluated using an ELISA-based blocking assay.
# T3 sequence (P02786 other isoform, or with tags, fused parts or gaps): as above
row,% Blocking,Binder
1,5%,B7
2,27%,B8
3,10%,B9
4,0%,B10
5,44%,B11
6,45%,B12
7,23%,B13
8,10%,B14
9,37%,B15
10,45%,B16
11,10%,B17
